Experimental data: IntAct's records for PubMed 22817896

B1: Receptor-interacting serine/threonine-protein kinase 3 (Homo sapiens), Q9Y572 (parent)
chain: MSCVKLWPSGAPAPLVSIEELENQELVGKGGFGTVFRAQHRKWGYDVAVKIVNSKAISREVKAMASLDNEFVLRLEGVIEKVNWDQDPKPALVTKFMENGSLSGLLQSQCPRPWPLLCRLLKEVVLGMFYLHDQNPVLLHRDLKPSNVLLDPELHVKLADFGLSTFQGGSQSGTGSGEPGGTLGYLAPELFVNVNRKASTASDVYSFGILMWAVLAGREVELPTEPSLVYEAVCNRQNRPSLAELPQAGPETPGLEGLKELMQLCWSSEPKDRPSFQECLPKTDEVFQMVENNMNAAVSTVKDFLSQLRSSNRRFSIPESGQGGTEMDGFRRTIENQHSRNDVMVSEWLNKLNLEEPPSSVPKKCPSLTKRSRAQEEQVPQAWTAGTSSDSMAQPPQTPETSTFRNQMPSPTSTGTPSPGPRGNQGAERQGMNWSCRTPEPNPVTGRPLVNIYNCSGVQVGDNNYLTMQQTTALPTWGLAPSGKGRGLQHPPPVGSQEGPKDPEAWSRPQGWYNHSGK
B2: Receptor-interacting serine/threonine-protein kinase 1 (Homo sapiens), Q13546 (parent)
chain: MQPDMSLNVIKMKSSDFLESAELDSGGFGKVSLCFHRTQGLMIMKTVYKGPNCIEHNEALLEEAKMMNRLRHSRVVKLLGVIIEEGKYSLVMEYMEKGNLMHVLKAEMSTPLSVKGRIILEIIEGMCYLHGKGVIHKDLKPENILVDNDFHIKIADLGLASFKMWSKLNNEEHNELREVDGTAKKNGGTLYYMAPEHLNDVNAKPTEKSDVYSFAVVLWAIFANKEPYENAICEQQLIMCIKSGNRPDVDDITEYCPREIISLMKLCWEANPEARPTFPGIEEKFRPFYLSQLEESVEEDVKSLKKEYSNENAVVKRMQSLQLDCVAVPSSRSNSATEQPGSLHSSQGLGMGPVEESWFAPSLEHPQEENEPSLQSKLQDEANYHLYGSRMDRQTKQQPRQNVAYNREEERRRRVSHDPFAQQRPYENFQNTEGKGTAYSSAASHGNAVHQPSGLTSQPQVLYQNNGLYSSHGFGTRPLDPGTAGPRVWYRPIPSHMPSLHNIPVPETNYLGNTPTMPFSSLPPTDESIKYTIYNSTGIQIGAYNYMEIGGTSSSLLDSTNTNFKEEPAAKYQAIFDNTTSLTDKHLDPIRENLGKHWKNCARKLGFTQSQIDEIDHDYERDGLKEKVYQMLQKWVMREGIKGATVGKLAQALHQCSRIDLLSSLIYVSQN

Variants of: B1
Conditions: with ripk1_human RIPK1, Q13546

Effect of a mutation on the interaction, decreasing interaction strength:
S456D
G457D
V458D
V458E;V460E
Q459D
V460D
G461D
D462K

Variants of: B1
Conditions: with ripk1_human RIPK1, Q13546
Remark: another data set of the same source

Effect of a mutation on the interaction, decreasing interaction strength:
V458P
Q459P
V460P
G461P

Variants of: B2
Conditions: with ripk3_human RIPK3, Q9Y572

Effect of a mutation on the interaction, decreasing interaction strength:
N545D
A543D
Q540D
I539D
Y544D
I541D
G542D
